Values joined by “and” are separate entries in the source; they are usually repeats but may differ in a detail not shown here. Identical values can stand only once.

Experiment [1] has as its target T1, BCL10 (Homo sapiens, UniProt O95999).
T1 construct: Full-length GST-BCL10 (Abnova, catalog H00008915-P01) was immobilized onto a gold sensor chip surface; GST (N); purchased Abnova H00008915-P01
T1 sequence (O95999 1-233): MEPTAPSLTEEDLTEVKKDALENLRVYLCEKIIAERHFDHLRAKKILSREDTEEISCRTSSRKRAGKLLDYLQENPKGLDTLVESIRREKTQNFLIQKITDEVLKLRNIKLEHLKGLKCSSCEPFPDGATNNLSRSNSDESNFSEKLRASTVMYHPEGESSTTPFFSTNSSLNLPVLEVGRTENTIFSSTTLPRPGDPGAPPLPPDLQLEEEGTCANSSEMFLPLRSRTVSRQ
Briefly: ELISA binding of recombinant MALT1 or GRK2 to immobilized BCL10. As to conditions: protein added to immobilized BCL10. As to the method: ELISA-based protein-protein interaction assay. On a high-binding 96-well ELISA microplate (Greiner Cat# 655061), 100 ng of His-tagged recombinant human full-length BCL10 protein (Novus Cat# NBP1-99064) or in 100 µl PBS was allowed to adhere overnight at 4°C. The plate was blocked with 5% BSA in PBS for 1 hour at room temperature. After washing twice with PBS-T, a mixture of 100 ng of GST-tagged recombinant human full-length MALT1 protein (Novus Biologicals Cat# H00010892-P01) and compound that was preincubated for 1 hour in 100 μl PBS was added to the plate for 1 hour at room temperature. After washing three times with PBS-T, anti-MALT1 antibody (Cell Signaling Technology, Cat# 2494) in 5% BSA in PBS was added at 1:1000 dilution for 1 hour at room temperature. After washing three times with PBS-T, HRP-conjugated secondary antibody in 5% BSA in PBS was added at 1:5000 dilution for 1 hour at room temperature. After washing three times with PBS-T, 100 µl of 3,3’,5,5’-tetramethylbenzidine (TMB) substrate solution (Thermo Scientific, Cat# 34028) was added for up to 15 minutes, and 100 µl of 2 M sulfuric acid was added to stop the reaction. The plate was read at 450 nm using a spectrophotometer (Molecular Devices SpectraMax i3). […]

Experiment [2] has as its target T1, BCL10. Briefly: SPR binding of MALT1 protein fragments to immobilized BCL10. As to the method: Surface plasmon resonance (SPR) experiments were performed on a Biacore 2000 system (Cytiva). Full-length GST-BCL10 (Abnova, catalog H00008915-P01) was immobilized onto a gold sensor chip surface, and analyte solution containing MALT1(DD+Ig1-2), MALT1(DD), or MALT1(Ig1-2) purified protein was injected over the surface through a series of flow cells (see Supplemental Methods for details on protein purification). The binding kinetic parameters were obtained using the Langmuir model for global fitting with 1:1 binding ratio where one ligand molecule interacts with one analyte molecule. The equilibrium dissociation constant (KD) of M1i-124 to full-length GST-tagged MALT1 (Novus, catalog H00010892-P01) protein was determined by Creative Biolabs using Biacore T200. Full-length MALT1 protein was immobilized onto CM5 sensor chip surface, and M1i-124 was injected at concentrations of 0, 12.5, 25, 50, 100, and 200 μM. The steady-state affinity model was used to determine the KD.
Supplemental Materials and Methods
Cell lines and reagents. The DLBCL cell lines OCI-Ly1, OCI-Ly3, and OCI-Ly7 were provided by Mark D. Minden (University Health Network, Toronto, Ontario, Canada) , TMD8 cell line was provided by Louis Staudt (National Cancer Institute, NIH, Bethesda Maryland), and the BJAB cell line was provided by Mathijs Baens (Katholieke Universiteit Leuven, Leuven, Belgium). […]
(In general: SPR reads the build-up and loss of mass on a sensor chip optically.)

Experiment [3] deals with T2, Full-length GST-BCL10 (UniProt O95999 1-233).
T2 construct: BCL10, full length; also called immobilized BCL10; source: bought: Abnova, catalog H00008915-P01
T2 sequence (looked up): T1 sequence (O95999 1-233)
Briefly: SPR; Biacore 2000; full-length GST-BCL10 immobilised on a gold sensor chip surface, purified MALT1 fragments injected as analyte; Langmuir model, global fitting, 1:1 binding. To be noted: both partners purified.

Regarding BCL10 + GRK2, the OD450 in experiment [1] was 0.226 and 0.156.
BCL10 + MALT1: in experiment [1], the OD450 was 0.851 and 0.825.

B1: MALT1(DD): Recombinant human MALT1 fragment, death domain only (aa 29-124) (protein, UniProt Q9UDY8 29-124, looked up, fragment)
chain: TLNRLREPLLRRLSELLDQAPEGRGWRRLAELAGSRGRLRLSCLDLEQCSLKVLEPEGSPSLCLLKLMGEKGCTVTELSDFLQAMEHTEVLQLLSP
B1: the “binding to BCL10” value in experiment [2] (result in words) was “no detectable binding”.

B2: MALT1(DD+Ig1-2) purified protein (domain or fragment)
chain: MSLLGDPLQALPPSAAPTGPLLAPPAGATLNRLREPLLRRLSELLDQAPEGRGWRRLAELAGSRGRLRLSCLDLEQCSLKVLEPEGSPSLCLLKLMGEKGCTVTELSDFLQAMEHTEVLQLLSPPGIKITVNPESKAVLAGQFVKLCCRATGHPFVQYQWFKMNKEIPNGNTSELIFNAVHVKDAGFYVCRVNNNFTFEFSQWSQLDVCDIPESFQRSVDGVSESKLQICVEPTSQKLMPGSTLVLQCVAVGSPIPHYQWFKNELPLTHETKKLYMVPYVDLEHQGTYWCHVYNDRDSQDSKKVEIIIDELNNLGHPDNKEQTTDQ
modifications: Printed as aa 1-326, MBP tag removed by TEV. Taken in isoform B numbering (lacks 309-319): the paper uses isoform B (C-terminus at 813), and the 3K0W construct, 199 residues after its tag and ending …
A word on the Kd: it is the equilibrium constant for the complex coming apart. Read a low Kd as tighter binding. B2: the Kd in experiment [3] is 25 nM.

B3: MALT1(Ig1-2) purified protein (domain or fragment)
chain: KITVNPESKAVLAGQFVKLCCRATGHPFVQYQWFKMNKEIPNGNTSELIFNAVHVKDAGFYVCRVNNNFTFEFSQWSQLDVCDIPESFQRSVDGVSESKLQICVEPTSQKLMPGSTLVLQCVAVGSPIPHYQWFKNELPLTHETKKLYMVPYVDLEHQGTYWCHVYNDRDSQDSKKVEIII
notes: MALT1, tandem Ig-like domains Ig1 and Ig2; PDB 3K0W is the published MALT1(Ig1-2) crystal structure, whose limits may differ from this construct; Host, tags and limits are in Supplemental Methods; source: purified protein (purification in Supplemental Methods)
For B3, in experiment [3], the Kd was 29 nM.

B4: MALT1(DD+Ig1-2): Recombinant human MALT1 fragment, death domain plus Ig1-2 domains (aa 1-326) (protein, UniProt Q9UDY8 1-326, looked up, fragment)
chain: MSLLGDPLQALPPSAAPTGPLLAPPAGATLNRLREPLLRRLSELLDQAPEGRGWRRLAELAGSRGRLRLSCLDLEQCSLKVLEPEGSPSLCLLKLMGEKGCTVTELSDFLQAMEHTEVLQLLSPPGIKITVNPESKAVLAGQFVKLCCRATGHPFVQYQWFKMNKEIPNGNTSELIFNAVHVKDAGFYVCRVNNNFTFEFSQWSQLDVCDIPESFQRSVDGVSESKLQICVEPTSQKLMPGSTLVLQCVAVGSPIPHYQWFKNELPLTHETKKLYMVPYVDLEHQGTYWCHVYNDRDSQDSKKVEIIIGRTDEAVECTEDELNNLG
In experiment [2] (MALT1 fragment over immobilized BCL10), B4 had a Kd of 25 nM.
